From patent US20110064751A1 (Hoffmann-La Roche, published 2011)
Substitutions are numbered along the chain they refer to.

Experiments:
[1] = molecular target: T1, Human TNC-A1 + avi-tag + his6-tag (human, biotinylated in vivo at the avi-tag); experiment: phage display selection and ELISA on biotinylated human TNC-A1
T1 chain: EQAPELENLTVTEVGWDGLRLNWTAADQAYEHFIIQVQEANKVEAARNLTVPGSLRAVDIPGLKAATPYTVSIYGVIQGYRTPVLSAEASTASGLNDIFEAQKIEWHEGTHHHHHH
Description: See SEQ ID NO: 59 of Table 5. The antigen was biotinylated in vivo upon expression.
Selections were carried out over 3 rounds using constant antigen concentrations at 100 nM. In round 2, capture of antigen:phage complexes was performed on neutravidin plates instead of streptavidin beads.

[2] = molecular target: T2, Murine FAP ectodomain + poly-lys-tag + his6-tag (murine, UniProt P97321 27-761); experiment: primary phage selections, ELISA and BIACORE kinetic screening
T2 construct: also called mu FAP
Description: See SEQ ID NOs: 53 and 55 of Table 5. Prior to selections, the antigens were coated into immunotubes at a concentration of either 10 μg/ml or 5 μg/ml, depending on round of selection.
Specific binders were defined as signals 5× higher than background and were identified by ELISA.
ELISA-positive clones were bacterially expressed as 1 mL cultures in 96-well format and supernatants were subjected to a kinetic screening experiment using BIACORE T100.

B1: 2F11 Fab (Fab, V domains shown)
VH: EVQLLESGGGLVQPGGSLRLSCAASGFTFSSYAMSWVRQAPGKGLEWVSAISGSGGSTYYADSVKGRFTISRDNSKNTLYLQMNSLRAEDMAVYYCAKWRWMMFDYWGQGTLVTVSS
VL: EIVLTQSPGTLSLSPGERATLSCRASQSVSSSYLAWYQQKPGQAPRLLIYGASSRATGVPDRFSGSGSGTDFTLTISRLEPEDFAVYYCQQGQYTPPTFGQGTKVEIK
notes: Fab fragment; also called clone 2F11
binding result [1]: binds

B2: 4B8 Fab (Fab, V domains shown)
VH: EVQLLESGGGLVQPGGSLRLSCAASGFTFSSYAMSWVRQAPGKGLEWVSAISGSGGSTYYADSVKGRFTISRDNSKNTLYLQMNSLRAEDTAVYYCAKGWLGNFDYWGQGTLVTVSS
VL: B1 VL with V59I, Y94V, T95I
notes: Fab fragment; also called anti-murine FAP clone 4B8
binding result [2]: binds
